According to PMC5477534:

System: lac repressor (LacI)
Test: SFM imaging
Conditions: streptavidin bound, SFM: 7.5 nM LacI, about 30 min incubation, 100 uM NTPs for 60 s, EDTA quench, poly-L-ornithine-coated mica, buffer, salt, pH and temperature not in the …

Substance	binding signal (% looped molecules) (LacI, with transcription (NTP), downstream-end biotin)	binding signal (% looped molecules) (LacI, without transcription, downstream-end biotin)	binding signal (% looped molecules) (7.5 nM LacI, with transcription (NTP), 3'/downstream-end biotin)	binding signal (% operator occupancy) (7.5 nM LacI, without NTP (drops about 20% with transcription), 3'/downstream-end biotin)	binding signal (% looped molecules) (7.5 nM LacI, without transcription, 3'/downstream-end biotin)
O2-400-O1 SFM template	14	12			
Os-400-O1 SFM template			50	> 90	34
